In the RNAGym collection of RNA variant scans (doi:10.1021/acssynbio.7b00057):

B1: Pistol ribozyme (parent)
chain: GGGUCGUUGUUCCAUAAUCGCGUGGAUAUGGCACGCAAGUUUCUACCGGGCACCGUAAAUGUCCGACUGGAGCCGUUCGGGCGGCUAUAAACAGACCUCAGGCCCGAAGCGUGGCGGCACCUGCCGCCGGUGGUAAAAAAGAUCGGAAGAGCACACGUCU

Variants of: B1
Assay: aptazyme ON/OFF ratio, guanine; higher = stronger switching; co-transcriptional cleavage with and without guanine

| Variant | aptazyme ON/OFF ratio |
| --- | --- |
| GGGUCGUUUUACGAUAAUCGCGUGGAUAUGGCACGCAAGUUUCUACCGGGCACCGUAAAUGUCCGACUGGAGCCGUUCGGGCGGCUAUAAACAGACCUCAGGCCCGAAGCGUGGCGGCACCUGCCGCCGGUGGUAAAAAAGAUCGGAAGAGCACACGUCU [G9U U11A C13G] | 1.13 |
| GGGUCGGGAGAUAAUAAUCGCGUGGAUAUGGCACGCAAGUUUCUACCGGGCACCGUAAAUGUCCGACUGGAGCCGUUCGGGCGGCUAUAAACAGACCUCAGGCCCGAAGCGUGGCGGCACCUGCCGCCGGUGGUAAAAAAGAUCGGAAGAGCACACGUCU [U7G U8G G9A U10G U11A C12U C13A] | 1.15 |
| GGGUCGUGGGUGCAUAAUCGCGUGGAUAUGGCACGCAAGUUUCUACCGGGCACCGUAAAUGUCCGACUGGAGCCGUUCGGGCGGCUAUAAACAGACCUCAGGCCCGAAGCGUGGCGGCACCUGCCGCCGGUGGUAAAAAAGAUCGGAAGAGCACACGUCU [U8G U10G C12G] | 1.3 |
| GGGUCGGCCAGCGAUAAUCGCGUGGAUAUGGCACGCAAGUUUCUACCGGGCACCGUAAAUGUCCGACUGGAGCCGUUCGGGCGGCUAUAAACAGACCUCAGGCCCGAAGCGUGGCGGCACCUGCCGCCGGUGGUAAAAAAGAUCGGAAGAGCACACGUCU [U7G U8C G9C U10A U11G C13G] | 1.15 |
| GGGUCGAUGUUUCAUAAUCGCGUGGAUAUGGCACGCAAGUUUCUACCGGGCACCGUAAAUGUCCGACUGGAGCCGUUCGGGCGGCUAUAAACAGACCUCAGGCCCGAAGCGUGGCGGCACCUGCCGCCGGUGGUAAAAAAGAUCGGAAGAGCACACGUCU [U7A C12U] | 1.48 |
| GGGUCGUGAGCAGAUAAUCGCGUGGAUAUGGCACGCAAGUUUCUACCGGGCACCGUAAAUGUCCGACUGGAGCCGUUCGGGCGGCUAUAAACAGACCUCAGGCCCGAAGCGUGGCGGCACCUGCCGCCGGUGGUAAAAAAGAUCGGAAGAGCACACGUCU [U8G G9A U10G U11C C12A C13G] | 1.16 |
| GGGUCGUCGCCUUAUAAUCGCGUGGAUAUGGCACGCAAGUUUCUACCGGGCACCGUAAAUGUCCGACUGGAGCCGUUCGGGCGGCUAUAAACAGACCUCAGGCCCGAAGCGUGGCGGCACCUGCCGCCGGUGGUAAAAAAGAUCGGAAGAGCACACGUCU [U8C U10C U11C C12U C13U] | 1.28 |
| GGGUCGUCCAUCGAUAAUCGCGUGGAUAUGGCACGCAAGUUUCUACCGGGCACCGUAAAUGUCCGACUGGAGCCGUUCGGGCGGCUAUAAACAGACCUCAGGCCCGAAGCGUGGCGGCACCUGCCGCCGGUGGUAAAAAAGAUCGGAAGAGCACACGUCU [U8C G9C U10A C13G] | 1.16 |
| GGGUCGAGUACGUAUAAUCGCGUGGAUAUGGCACGCAAGUUUCUACCGGGCACCGUAAAUGUCCGACUGGAGCCGUUCGGGCGGCUAUAAACAGACCUCAGGCCCGAAGCGUGGCGGCACCUGCCGCCGGUGGUAAAAAAGAUCGGAAGAGCACACGUCU [U7A U8G G9U U10A U11C C12G C13U] | 1.4 |
| GGGUCGUCUUUCAAUAAUCGCGUGGAUAUGGCACGCAAGUUUCUACCGGGCACCGUAAAUGUCCGACUGGAGCCGUUCGGGCGGCUAUAAACAGACCUCAGGCCCGAAGCGUGGCGGCACCUGCCGCCGGUGGUAAAAAAGAUCGGAAGAGCACACGUCU [U8C G9U C13A] | 1.08 |
| GGGUCGGUAUAGGAUAAUCGCGUGGAUAUGGCACGCAAGUUUCUACCGGGCACCGUAAAUGUCCGACUGGAGCCGUUCGGGCGGCUAUAAACAGACCUCAGGCCCGAAGCGUGGCGGCACCUGCCGCCGGUGGUAAAAAAGAUCGGAAGAGCACACGUCU [U7G G9A U11A C12G C13G] | 1.13 |
| GGGUCGACCAGAAAUAAUCGCGUGGAUAUGGCACGCAAGUUUCUACCGGGCACCGUAAAUGUCCGACUGGAGCCGUUCGGGCGGCUAUAAACAGACCUCAGGCCCGAAGCGUGGCGGCACCUGCCGCCGGUGGUAAAAAAGAUCGGAAGAGCACACGUCU [U7A U8C G9C U10A U11G C12A C13A] | 1.11 |
| GGGUCGAAAAAGUAUAAUCGCGUGGAUAUGGCACGCAAGUUUCUACCGGGCACCGUAAAUGUCCGACUGGAGCCGUUCGGGCGGCUAUAAACAGACCUCAGGCCCGAAGCGUGGCGGCACCUGCCGCCGGUGGUAAAAAAGAUCGGAAGAGCACACGUCU [U7A U8A G9A U10A U11A C12G C13U] | 1.13 |
| GGGUCGCAGCCAUAUAAUCGCGUGGAUAUGGCACGCAAGUUUCUACCGGGCACCGUAAAUGUCCGACUGGAGCCGUUCGGGCGGCUAUAAACAGACCUCAGGCCCGAAGCGUGGCGGCACCUGCCGCCGGUGGUAAAAAAGAUCGGAAGAGCACACGUCU [U7C U8A U10C U11C C12A C13U] | 1.27 |
| GGGUCGAUGUAGGAUAAUCGCGUGGAUAUGGCACGCAAGUUUCUACCGGGCACCGUAAAUGUCCGACUGGAGCCGUUCGGGCGGCUAUAAACAGACCUCAGGCCCGAAGCGUGGCGGCACCUGCCGCCGGUGGUAAAAAAGAUCGGAAGAGCACACGUCU [U7A U11A C12G C13G] | 1.14 |
| GGGUCGCGGAGCUAUAAUCGCGUGGAUAUGGCACGCAAGUUUCUACCGGGCACCGUAAAUGUCCGACUGGAGCCGUUCGGGCGGCUAUAAACAGACCUCAGGCCCGAAGCGUGGCGGCACCUGCCGCCGGUGGUAAAAAAGAUCGGAAGAGCACACGUCU [U7C U8G U10A U11G C13U] | 1.28 |
| GGGUCGAUAAAGCAUAAUCGCGUGGAUAUGGCACGCAAGUUUCUACCGGGCACCGUAAAUGUCCGACUGGAGCCGUUCGGGCGGCUAUAAACAGACCUCAGGCCCGAAGCGUGGCGGCACCUGCCGCCGGUGGUAAAAAAGAUCGGAAGAGCACACGUCU [U7A G9A U10A U11A C12G] | 1.15 |
| GGGUCGGAGUGCUAUAAUCGCGUGGAUAUGGCACGCAAGUUUCUACCGGGCACCGUAAAUGUCCGACUGGAGCCGUUCGGGCGGCUAUAAACAGACCUCAGGCCCGAAGCGUGGCGGCACCUGCCGCCGGUGGUAAAAAAGAUCGGAAGAGCACACGUCU [U7G U8A U11G C13U] | 1.21 |

| Variant | aptazyme ON/OFF ratio |
| --- | --- |
| GGGUCGGACCUGUAUAAUCGCGUGGAUAUGGCACGCAAGUUUCUACCGGGCACCGUAAAUGUCCGACUGGAGCCGUUCGGGCGGCUAUAAACAGACCUCAGGCCCGAAGCGUGGCGGCACCUGCCGCCGGUGGUAAAAAAGAUCGGAAGAGCACACGUCU [U7G U8A G9C U10C C12G C13U] | 1.07 |
| GGGUCGGGAUUGGAUAAUCGCGUGGAUAUGGCACGCAAGUUUCUACCGGGCACCGUAAAUGUCCGACUGGAGCCGUUCGGGCGGCUAUAAACAGACCUCAGGCCCGAAGCGUGGCGGCACCUGCCGCCGGUGGUAAAAAAGAUCGGAAGAGCACACGUCU [U7G U8G G9A C12G C13G] | 1.14 |
| GGGUCGGUUACCAAUAAUCGCGUGGAUAUGGCACGCAAGUUUCUACCGGGCACCGUAAAUGUCCGACUGGAGCCGUUCGGGCGGCUAUAAACAGACCUCAGGCCCGAAGCGUGGCGGCACCUGCCGCCGGUGGUAAAAAAGAUCGGAAGAGCACACGUCU [U7G G9U U10A U11C C13A] | 1.35 |
| GGGUCGGCCCAUCAUAAUCGCGUGGAUAUGGCACGCAAGUUUCUACCGGGCACCGUAAAUGUCCGACUGGAGCCGUUCGGGCGGCUAUAAACAGACCUCAGGCCCGAAGCGUGGCGGCACCUGCCGCCGGUGGUAAAAAAGAUCGGAAGAGCACACGUCU [U7G U8C G9C U10C U11A C12U] | 1.06 |
| GGGUCGGGUGGUCAUAAUCGCGUGGAUAUGGCACGCAAGUUUCUACCGGGCACCGUAAAUGUCCGACUGGAGCCGUUCGGGCGGCUAUAAACAGACCUCAGGCCCGAAGCGUGGCGGCACCUGCCGCCGGUGGUAAAAAAGAUCGGAAGAGCACACGUCU [U7G U8G G9U U10G U11G C12U] | 1.18 |
| GGGUCGGUUCAACAUAAUCGCGUGGAUAUGGCACGCAAGUUUCUACCGGGCACCGUAAAUGUCCGACUGGAGCCGUUCGGGCGGCUAUAAACAGACCUCAGGCCCGAAGCGUGGCGGCACCUGCCGCCGGUGGUAAAAAAGAUCGGAAGAGCACACGUCU [U7G G9U U10C U11A C12A] | 1.58 |
| GGGUCGUUCCGAGAUAAUCGCGUGGAUAUGGCACGCAAGUUUCUACCGGGCACCGUAAAUGUCCGACUGGAGCCGUUCGGGCGGCUAUAAACAGACCUCAGGCCCGAAGCGUGGCGGCACCUGCCGCCGGUGGUAAAAAAGAUCGGAAGAGCACACGUCU [G9C U10C U11G C12A C13G] | 1.03 |
| GGGUCGAUGGAAUAUAAUCGCGUGGAUAUGGCACGCAAGUUUCUACCGGGCACCGUAAAUGUCCGACUGGAGCCGUUCGGGCGGCUAUAAACAGACCUCAGGCCCGAAGCGUGGCGGCACCUGCCGCCGGUGGUAAAAAAGAUCGGAAGAGCACACGUCU [U7A U10G U11A C12A C13U] | 1.08 |
| GGGUCGACCAGCCAUAAUCGCGUGGAUAUGGCACGCAAGUUUCUACCGGGCACCGUAAAUGUCCGACUGGAGCCGUUCGGGCGGCUAUAAACAGACCUCAGGCCCGAAGCGUGGCGGCACCUGCCGCCGGUGGUAAAAAAGAUCGGAAGAGCACACGUCU [U7A U8C G9C U10A U11G] | 1.11 |
| GGGUCGAACUUAGAUAAUCGCGUGGAUAUGGCACGCAAGUUUCUACCGGGCACCGUAAAUGUCCGACUGGAGCCGUUCGGGCGGCUAUAAACAGACCUCAGGCCCGAAGCGUGGCGGCACCUGCCGCCGGUGGUAAAAAAGAUCGGAAGAGCACACGUCU [U7A U8A G9C C12A C13G] | 1.13 |
| GGGUCGGUAAGCUAUAAUCGCGUGGAUAUGGCACGCAAGUUUCUACCGGGCACCGUAAAUGUCCGACUGGAGCCGUUCGGGCGGCUAUAAACAGACCUCAGGCCCGAAGCGUGGCGGCACCUGCCGCCGGUGGUAAAAAAGAUCGGAAGAGCACACGUCU [U7G G9A U10A U11G C13U] | 1.14 |
| GGGUCGAGGCUGGAUAAUCGCGUGGAUAUGGCACGCAAGUUUCUACCGGGCACCGUAAAUGUCCGACUGGAGCCGUUCGGGCGGCUAUAAACAGACCUCAGGCCCGAAGCGUGGCGGCACCUGCCGCCGGUGGUAAAAAAGAUCGGAAGAGCACACGUCU [U7A U8G U10C C12G C13G] | 1.05 |
| GGGUCGGCUCGUUAUAAUCGCGUGGAUAUGGCACGCAAGUUUCUACCGGGCACCGUAAAUGUCCGACUGGAGCCGUUCGGGCGGCUAUAAACAGACCUCAGGCCCGAAGCGUGGCGGCACCUGCCGCCGGUGGUAAAAAAGAUCGGAAGAGCACACGUCU [U7G U8C G9U U10C U11G C12U C13U] | 1.28 |
| GGGUCGUAACUCAAUAAUCGCGUGGAUAUGGCACGCAAGUUUCUACCGGGCACCGUAAAUGUCCGACUGGAGCCGUUCGGGCGGCUAUAAACAGACCUCAGGCCCGAAGCGUGGCGGCACCUGCCGCCGGUGGUAAAAAAGAUCGGAAGAGCACACGUCU [U8A G9A U10C C13A] | 1.06 |
| GGGUCGUGUUUACAUAAUCGCGUGGAUAUGGCACGCAAGUUUCUACCGGGCACCGUAAAUGUCCGACUGGAGCCGUUCGGGCGGCUAUAAACAGACCUCAGGCCCGAAGCGUGGCGGCACCUGCCGCCGGUGGUAAAAAAGAUCGGAAGAGCACACGUCU [U8G G9U C12A] | 1.57 |
| GGGUCGAAUGGGGAUAAUCGCGUGGAUAUGGCACGCAAGUUUCUACCGGGCACCGUAAAUGUCCGACUGGAGCCGUUCGGGCGGCUAUAAACAGACCUCAGGCCCGAAGCGUGGCGGCACCUGCCGCCGGUGGUAAAAAAGAUCGGAAGAGCACACGUCU [U7A U8A G9U U10G U11G C12G C13G] | 1.16 |
| GGGUCGAGCUCCGAUAAUCGCGUGGAUAUGGCACGCAAGUUUCUACCGGGCACCGUAAAUGUCCGACUGGAGCCGUUCGGGCGGCUAUAAACAGACCUCAGGCCCGAAGCGUGGCGGCACCUGCCGCCGGUGGUAAAAAAGAUCGGAAGAGCACACGUCU [U7A U8G G9C U11C C13G] | 1.1 |
| GGGUCGGGAGAAUAUAAUCGCGUGGAUAUGGCACGCAAGUUUCUACCGGGCACCGUAAAUGUCCGACUGGAGCCGUUCGGGCGGCUAUAAACAGACCUCAGGCCCGAAGCGUGGCGGCACCUGCCGCCGGUGGUAAAAAAGAUCGGAAGAGCACACGUCU [U7G U8G G9A U10G U11A C12A C13U] | 1.18 |
